This note sets out measurements from PMC4682845 (2015).

The target of this experiment is […]-para-nitroanilide (TQ6-pNA) peptide substrate. As to the kind of experiment: ITC. In general terms: In ITC the heat of successive injections is recorded.

B1: MERS-CoV main protease (M^pro), wild type, authentic N-terminus (enzyme)
chain: SGLVKMSHPSGDVEACMVQVTCGSMTLNGLWLDNTVWCPRHVMCPADQLSDPNYDALLISMTNHSFSVQKHIGAPANLRVVGHAMQGTLLKLTVDVANPSTPAYTFTTVKPGAAFSVLACYNGRPTGTFTVVMRPNYTIKGSFLCGSCGSVGYTKEGSVINFCYMHQMELANGTHTGSAFDGTMYGAFMDKQVHQVQLTDKYCSVNVVAWLYAAILNGCAWFVKPNRTSVVSFNEWALANQFTEFVGTQSVDMLAVKTGVAIEQLLYAIQQLYTGFQGKQILGSTMLEDEFTPEDVNMQIMGVVMQ
On to B1, for which the Kd (usually the free concentration of one partner at which half of the binding sites on the other are occupied at equilibrium, for simple one-to-one binding) was 20.3 µM.
